Consider 1 substance from article PMC3937211, “Serine Carboxypeptidase SCPEP1 and Cathepsin A Play Complementary Roles in Regulation of Vasoconstriction via Inactivation of Endothelin-1” (PLoS Genetics, 2014).

The target of this assay is T1, Scpep1 (Mus musculus, UniProt Q920A5).
T1 construct: Scpep1 has a cleavable signal peptide, N-linked glycans, the Ser-Asp-His catalytic triad and is proteolytically processed from a 55 kDa precursor; made in house; host or cells: HT1080 cells (stably transfected), protein purified from the culture medium
T1 sequence (Q920A5 29-452): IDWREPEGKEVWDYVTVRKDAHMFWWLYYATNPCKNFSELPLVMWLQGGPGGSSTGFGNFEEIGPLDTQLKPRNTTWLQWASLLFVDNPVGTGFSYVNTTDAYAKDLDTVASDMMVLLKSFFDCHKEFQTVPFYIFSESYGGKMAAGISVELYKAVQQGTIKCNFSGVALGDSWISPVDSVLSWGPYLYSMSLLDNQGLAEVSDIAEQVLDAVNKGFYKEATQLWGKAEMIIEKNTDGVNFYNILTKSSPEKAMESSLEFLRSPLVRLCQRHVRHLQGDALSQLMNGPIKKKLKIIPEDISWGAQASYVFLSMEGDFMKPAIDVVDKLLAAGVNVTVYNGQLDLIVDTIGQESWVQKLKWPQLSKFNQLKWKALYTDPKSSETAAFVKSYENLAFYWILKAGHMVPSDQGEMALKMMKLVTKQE
The experiment in a line: Carboxypeptidase activity of purified recombinant Scpep1-His6 against ET-1. Type of assay: biochemical. As to conditions: pH 6.5 and 7.5, 50 µM ET-1. The source says: Figure 1 Scpep1 has carboxypeptidase activity against ET-1. A. Carboxypeptidase activity against ET-1 in homogenates of cultured AVSMC from WT, Scpep1 ^−/−, CathA^S190A and Scpep1 ^−/− /CathA^S190A mice as well as from the cells of Scpep1 ^−/− /CathA^S190A mice transiently transfected with pCMV-GFP and pCMV-Scpep1 plasmids. AVSMC after the passage 3 were transfected or not with Scpep1-RGS-His-Tag and pEGFP-C1 plasmids. Forty-eight hours after transfection confluent cells were harvested, homogenized and tested for carboxypeptidase activity using 50 µM ET-1 as a substrate. Data are expressed as means (±S.D.) of 3 independent experiments performed with different cell cultures. * p<0.05 and ** p<0.01 in two-tailed unpaired t-test. B. Carboxypeptidase activity against ET-1 in homogenates of cultured AVSMC from WT mice transfected with Scpep1 and CathA shRNA. […] The amino acid analysis of the reaction mixture determined that Scpep1 cleaves the C-terminal amino acid (Trp21) from ET-1 (not shown). […]
HT1080 cells stably expressing Scpep1-His6 [19] were cultured in DMEM with 0.05% FCS. […] Purity of Scpep1-His6 was monitored by silver staining and Western blotting.
Carboxypeptidase activity in cultured AVSMC was measured against 50 µM ET-1 as previously described using the method measuring the liberation rate of the C-terminal amino acid of the peptide. […]

endothelin-1 [ET-1]: the “carboxypeptidase activity against ET-1 compared with pH 5.5” value was “Lower activity”.
